Six molecules from US20250026805A1 (DUCENTIS BIOTHERAPEUTICS, published 2025) can be followed below.

Test [1] addresses T1, Recombinant Human CD200R, His tagged (human, UniProt Q8TD46 27-266, limits assumed).
T1 construct: Bought reagent; Flowed in solution as the analyte in the SPR; also called human CD200 receptor; CD200 receptor; not shown: His tag
T1 sequence (looked up): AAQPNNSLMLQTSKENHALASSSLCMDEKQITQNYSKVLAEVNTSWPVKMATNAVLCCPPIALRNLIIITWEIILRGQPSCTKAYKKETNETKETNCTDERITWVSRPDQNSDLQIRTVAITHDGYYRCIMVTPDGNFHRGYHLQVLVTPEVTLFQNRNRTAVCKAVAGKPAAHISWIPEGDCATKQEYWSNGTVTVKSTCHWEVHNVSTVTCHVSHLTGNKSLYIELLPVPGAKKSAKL
Kind of test: SPR (Biacore T200), CD200-Fc captured on anti-human Fc, His-tagged CD200R flowed over it, 25 C, 1:1 Langmuir model. The procedure:
(§1) Anti-human Fc was covalently immobilized on a BIAcore CM5 sensor chip by amine coupling using a GE Healthcare kit following the manufacturer's instructions. Maximum immobilization target was set between 10000-15000 RU. Flow cell 1 was used as a reference, with no immobilized ligand, to permit deduction of non-specific binding to the chip surface. The Fc-ligands were diluted to 0.5 μg/mL in BIAcore running buffer (HBS-EP+: 10 mM HEPES buffered saline containing 2 mM EDTA and 0.05% surfactant P-20). In the final immobilization step, wild-type CD200-Fc, mutant CD200-Fc and un-related control protein (Herceptin/Trastuzumab) were passed over the chip (using flow cells 2, 3 and 4 respectively), for 120 seconds, at a concentration giving rise to a minimum of 250 response units (RU), followed by stabilization of the surface for 120 seconds in running buffer. The CD200-Fc capture procedure was repeated for every CD200R concentration.
(§2) Following capture of the Fc-tagged proteins, CD200R (at different concentrations) was flowed over the captured CD200-Fc and control proteins for 120 seconds (to observe association), followed by 120 seconds of running buffer (to observe dissociation). The chip surface was then regenerated using 10 mM Glycine-HCl (pH 2) for 30 seconds (30 μl/min flow rate) followed by stabilization of the surface for 60 seconds with BIAcore running buffer before the next cycle. All CD200R concentrations were run in duplicate at the following concentrations: 1 μM, 500 nM, 250 nM, 125 nM, 62.5 nM, 31.25 nM, 15.6 nM and 0 nM.
(§3) The results were represented in sensorgrams plotted as response or resonance units (Rus) versus time. The experimental sensorgrams were analyzed in BIAevaluation software version 1.0 (GE Healthcare). […] Rate equations using standard parameters (e.g. ligand concentration, time) were used for iterative curve fitting. Closeness of fit was determined by algorithms provided by the manufacturer in the BIAevaluation software version 1.0.
A general note: In SPR one partner is held on a chip, and binding of the other changes the refractive index at the surface.

Test [2] deals with T1, Recombinant Human CD200R, His tagged. Kind of test: SPR (Biacore T200), CD200-Fc captured on anti-human Fc, His-tagged CD200R flowed over it, 25 C, 1:1 binding model. The procedure: as §1, §2, §3
Test [3] has the same target. Kind of test: SPR (Biacore T200), CD200-Fc captured on anti-human Fc, His-tagged CD200R flowed over it, 25 C, two state binding model. The procedure: as §1, with “concentration. […]” for “concentration.”
(§4) The results were represented in sensorgrams plotted as response or resonance units (Rus) versus time. The experimental sensorgrams were analyzed in BIAevaluation software version 1.0 (GE Healthcare). […] Closeness of fit was determined by algorithms provided by the manufacturer in the BIAevaluation software version 1.0.

Test [4] shares this target. Nature of the test: SPR (BIAcore T200, 25 C): CD200-Fc captured through anti-human Fc on a CM5 chip, His-tagged human CD200R flowed over it. Sensorgrams fitted with the 2 site (two state) binding model. Table 4 of the text gives 3.0 nM for this fit. The procedure: as §1, with “concentration. […]” for “concentration.”
as §4

Numbering of substitutions follows the chain as printed. Names and notes keep the numbering of the source.

For the molecule “DS-155 wild-type CD200-Fc fusion protein (IgG4 S228P Fc)”, in test [1], the Kd stood at 50 nM, the koff is 0.0251 s⁻¹, the on-rate constant (kon) stood at 543000 M⁻¹ s⁻¹ and the t½ amounted to 0.467 min.

B1: DS-150 mutant CD200-Fc fusion protein (K130F, I131F, IgG2 Fc) (Fc fusion)
chain: QVQVVTQDEREQLYTPASLKCSLQNAQEALIVTWQKKKAVSPENMVTFSENHGVVIQPAYKDKINITQLGLQNSTITFWNITLEDEGCYMCLFNTFGFGFFSGTACLTVYVQPIVSLHYKFSEDHLNITCSATARPAPMVFWKVPRSGIENSTVTLSHPNGTTSVTSILHIKDPKNQVGKEVICQVLHLGTVTDFKQTVNKGERKCCVECPPCPAPPVAGPSVFLFPPKPKDTLMISRTPEVTCVVVDVSHEDPEVQFNWYVDGVEVHNAKTKPREEQFNSTFRVVSVLTVVHQDWLNGKEYKCKVSNKGLPAPIEKTISKTKGQPREPQVYTLPPSREEMTKNQVSLTCLVKGFYPSDISVEWESNGQPENNYKTTPPMLDSDGSFFLYSKLTVDKSRWQQGNVFSCSVMHEALHNHYTQKSLSLSPGK
notes: Purified as the dimeric form
Regarding B1, in test [1], the Kd is 2.6 nM, the koff stood at 0.000226 s⁻¹, the kon worked out at 87500 M⁻¹ s⁻¹ and the t½ is 51.2 min.

B2: DS-149 mutant CD200-Fc fusion protein (K130Y, I131F, IgG2 Fc) (Fc fusion)
chain: B1 chain with F100Y
notes: Purified as the dimeric form
B2: in test [1], the Kd came to 1.9 nM, the koff worked out at 0.000229 s⁻¹, the kon was found to be 132000 M⁻¹ s⁻¹ and the t½ was found to be 50.5 min.

B3: DS-161 mutant CD200-Fc fusion protein (K130F, IgG2 Fc) (Fc fusion)
chain: B1 chain with F101I
notes: Purified as the dimeric form
For the molecule B3, in test [1], the Kd came out at 0.7 nM, the koff is 0.000593 s⁻¹, the kon stood at 838000 M⁻¹ s⁻¹ and the t½ was found to be 19.5 min.

B4: DS-151 mutant CD200-Fc fusion protein (K130F, I131Y, IgG2 Fc) (Fc fusion)
chain: B1 chain with F101Y
notes: Purified as the dimeric form
Regarding B4, in test [1], the Kd was 1.4 nM, the koff came out at 0.000181 s⁻¹, the kon amounted to 128000 M⁻¹ s⁻¹ and the t½ was found to be 63.8 min.

B5: DS-162 mutant CD200-Fc fusion protein (I131F, IgG2 Fc) (Fc fusion)
chain: B1 chain with F100K
notes: Purified as the dimeric form
In the case of B5, in test [2], the Kd amounted to 3 nM, the koff worked out at 0.00474 s⁻¹, the kon worked out at 1.9e+06 M⁻¹ s⁻¹ and the t½ amounted to 2.43 min. In addition, the Kd in test [3] worked out at 3 nM. Moreover, the Kd in test [4] amounted to 3.1 nM.

One may read the Kd as a measure of binding affinity in units of concentration. One may read the koff as the rate constant with which the complex falls apart. In general, kon refers to the second-order rate constant of association. What is called t½ is how long it takes for the measured level to halve.
